Assay results from article PMC13198613.

Target: N1-MPP (recombinant neuraminidase: N1 globular head domain from A/Michigan/45/2015 (H1N1) fused to the measles virus phosphoprotein tetramerization domain, with hexahistidine tag) (measles virus | influenza A virus A/Michigan/45/2015 (H1N1))
Test: SEC; […], pH 7.5, 0.4 mL/min, room temperature; […]

Substance: N1-MPP (recombinant neuraminidase: N1 globular head domain from A/Michigan/45/2015 (H1N1) fused to the measles virus phosphoprotein tetramerization domain, with hexahistidine tag) (enzyme)
- stoichiometry N: 4
